# B1: mAb1 Fab (Fab, V domains shown)
# VH: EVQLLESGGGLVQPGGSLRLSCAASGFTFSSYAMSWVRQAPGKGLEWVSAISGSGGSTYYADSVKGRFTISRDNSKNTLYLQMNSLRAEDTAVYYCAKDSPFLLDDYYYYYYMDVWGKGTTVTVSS
# VL: DIQMTQSPSSVSASVGDRVTITCRASQGISSWLAWYQQKPGKAPKLLIYAASSLQSGVPSRFSGSGSGTDFTLTISSLQPEDFATYYCQQGHLFPITFGGGTKVEIK
# Assays:
# [1] = target: T1, Fc-, mouse IgG2a-, or His-tagged human CD137 (human, UniProt Q07011 24-186); assay: BLI (Octet HTX), tagged CD137 on biosensor, Fab 0-500 nM in solution, global 1:1 fit, apparent KD; lower end of the printed range 50-70 nM
# T1 construct: Sources were ACRO Biosystems, Sino Biological and internal; not shown: Fc, mouse IgG2a or His tag
# Procedure: (§1) The anti-CD137 antibodies were further tested for their binding to CD137 from multiple species. Specifically, mAb1, mAb8 and mAb10 were analyzed for binding to human, mouse, cynomolgus and canine CD137. Kinetic experiments were performed on OCTET HTX (ForteBio) in kinetics buffer (1×PBS, pH 7.4, 0.1 mg/ml BSA, and 0.002% Tween 20). Fc-, mouse IgG2a-, or His-tagged CD137 (human, mouse, cyno or canine) were loaded for 5 minutes on pre-hydrated biosensors, AHC, AMC or NTA respectively. The sensors were then dipped into Fabs (0, 5.12, 12.8, 32, 80, 200 and 500 nM) for 5 minutes of association, following by 15 minutes of dissociation. Results were analyzed with ForteBio Data Analysis 9.0 and fit globally to a 1:1 binding model to determine the apparent KD. KD for human and mouse CD137 binding were confirmed by using antigens from different sources (ACRO Biosystems, Sino Biological and internal).
# [2] = target: T1, Fc-, mouse IgG2a-, or His-tagged human …; assay: BLI (Octet HTX), tagged CD137 on biosensor, Fab 0-500 nM in solution, global 1:1 fit, apparent KD; upper end of the printed range 50-70 nM
# Procedure: as §1
binder,measurement,setting,value
B1,Kd,[1],≥ 0.05 µM
same,Kd,[2],≤ 0.07 µM
